In patent US20090018067A1 (published 2009):

Experiments:
Assay in all cases: soluble HLA class II competition assay against a biotinylated control peptide, affinity grade
[1] = biological target: T1, HLA DRB1*0401 (purified recombinant soluble HLA class II molecule) (human)
T1 construct: also called DRB*0401

[2] = biological target: T2, HLA DRB1*0101 (purified recombinant soluble HLA class II molecule) (human)
T2 construct: also called DRB*0101

[3] = biological target: T3, HLA DRB1*0701 (purified recombinant soluble HLA class II molecule) (human)
T3 construct: also called DRB*0701

[4] = biological target: HLA DRB1*1501 (purified recombinant soluble HLA class II molecule) (human)

Measured: binding result

VDTSKNQFSLRLSSVTAADTA (Synthetic Fmoc peptide) [Tregitope-074]
binds: all assays above
